Test results taken from publication doi:10.1101/2023.05.09.538545v2.

Key:
Test in all cases: purified protein
Format in all cases: biochemical, Escherichia coli
Conditions in all cases: 0.05 M phosphate buffer, pH 7.0, 35 °C
[1] = substrate: CCCCCC(=O)CC(=O)N[C@H]1CCOC1=O
[2] = substrate: CCCCCCCCCC(=O)N[C@H]1CCOC1=O
[3] = substrate: CCCCCCCCCC(=O)CC(=O)N[C@H]1CCOC1=O
[4] = substrate: CCCC(=O)CC(=O)N[C@H]1CCOC1=O

B1: ecPGA (Escherichia coli penicillin G acylase) (Escherichia coli) (protein)
chain 1: EQSSSEIKIVRDEYGMPHIYANDTWHLFYGYGYVVAQDRLFQMEMARRSTQGTVAEVLGKDFVKFDKDIRRNYWPDAIRAQIAALSPEDMSILQGYADGMNAWIDKVNTNPETLLPKQFNTFGFTPKRWEPFDVAMIFVGTMANRFSDSTSEIDNLALLTALKDKYGVSQGMAVFNQLKWLVNPSAPTTIAVQESNYPLKFNQQNSQTA
chain 2: SNMWVIGKSKAQDAKAIMVNGPQFGWYAPAYTYGIGLHGAGYDVTGNTPFAYPGLVFGHNGVISWGSTAGFGDDVDIFAERLSAEKPGYYLHNGKWVKMLSREETITVKNGQAETFTVWRTVHGNILQTDQTTQTAYAKSRAWDGKEVASLLAWTHQMKAKNWQEWTQQAAKQALTINWYYADVNGNIGYVHTGAYPDRQSGHDPRLPVPGTGKWDWKGLLPFEMNPKVYNPQSGYIANWNNSPQKDYPASDLFAFLWGGADRVTEIDRLLEQKPRLTADQAWDVIRQTSRQDLNLRLFLPTLQAATSGLTQSDPRRQLVETLTRWDGINLLNDDGKTWQQPGSAILNVWLTSMLKRTVVAAVPMPFDKWYSASGYETTQDGPTGSLNISVGAKILYEAVQGDKSPIPQAVDLFAGKPQQEVVLAALEDTWETLSKRYGNNVSNWKTPAMALTFRANNFFGVPQAAAEETRHQAEYQNRGTENDMIVFSPTTSDRPVLAWDVVAPGQSGFIAPDGTVDKHYEDQLKMYENFGRKSLWLTKQDVEAHKESQEVLHVQR
B1 was tested. Which Km [1] did it give?
Its Km is 880 ± 40 µM.

And the kcat [1]?
The kcat was 0.0077 ± 0.0004 s⁻¹.

And the Km [2]?
Its Km is 2980 ± 200 µM.

What about the kcat [2] of the same protein?
The kcat was 0.0045 ± 0.0004 s⁻¹.

And the Km [3]?
Its Km is 2500 ± 100 µM.

And the kcat [3]?
Its kcat is 0.0043 ± 0.0002 s⁻¹.

What about the Km [4] of the same protein?
The Km was 510 ± 30 µM.

And the kcat [4]?
The kcat was 0.0100 ± 0.0002 s⁻¹.
